Laboratory results taken from paper PMC3360035.

Target: Wild-type human γD-crystallin (human) (UniProt P07320)
Sequence (P07320 whole entry): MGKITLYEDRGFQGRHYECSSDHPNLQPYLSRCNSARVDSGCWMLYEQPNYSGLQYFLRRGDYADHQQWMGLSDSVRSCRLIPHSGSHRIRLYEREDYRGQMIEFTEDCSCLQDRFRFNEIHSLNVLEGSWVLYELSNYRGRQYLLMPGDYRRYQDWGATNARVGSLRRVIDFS

Work on “αB-crystallin, wild type (from UniProt P02511 1-175) (natural protein)” yielded a suppression of aggregation on dilution out of 5 M GdnHCl (from maximum A350), αB in 5-fold molar excess of 72%.
